System: Abp1 PPIs
Test: DHFR-PCA of Abp1 SH3-swapped baits (Fig. 2B-D, S2C, S2F);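 for Protein-protein interaction distance between Abp1 SH3-swapped baits, to ABP1: Euclidean distance between DHFR-PCA score profiles of the baits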;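 for Protein-protein interaction distance between Abp1 SH3-swapped baits, to BEM1-2: Euclidean distance between DHFR-PCA score profiles of the baits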;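 for Protein-protein interaction distance between Abp1 SH3-swapped baits, to BOI1: Euclidean distance between DHFR-PCA score profiles of the baits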;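 for Protein-protein interaction distance between Abp1 SH3-swapped baits, to BZZ1-1: Euclidean distance between DHFR-PCA score profiles of the baits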
Format: cell-based, Saccharomyces cerevisiae
How it was run: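 Interactions were scored by DHFR protein-fragment complementation. DHFR F[1,2]-tagged Abp1 strains, whose SH3 was swapped for yeast or human ortholog domains, were crossed on YPD at 30 °C for 48 h with a 1536-format array of 575 prey-DHFR F[3] strains and 40 negatives, giving four replicates per pair. PCA selection lasted 4 days after double diploid selection.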

B1: WT (protein, UniProt P15891 2-592, looked up)
Actin-binding protein: ALEPIDYTTHSREIDAEYLKIVRGSDPDTTWLIISPNAKKEYEPESTGSSFHDFLQLFDETKVQYGLARVSPPGSDVEKIIIIGWCPDSAPLKTRASFAANFAAVANNLFKGYHVQVTARDEDDLDENELLMKISNAAGARYSIQTSSKQQGKASTPPVKKSFTPSKSPAPVSKKEPVKTPSPAPAAKISSRVNDNNDDDDWNEPELKERDFDQAPLKPNQSSYKPIGKIDLQKVIAEEKAKEDPRLVQKPTAAGSKIDPSSDIANLKNESKLKRDSEFNSFLGTTKPPSMTESSLKNDDDKVIKGFRNEKSPAQLWAERKAKQNSGNAETKAEAPKPEVPEDEPEGEPDVKDLKSKFEGLAASEKEEEEMENKFAPPPKKSEPTIISPKPFSKPQEPVKAEEAEQPKTDYKKIGNPLPGMHIEADNEEEPEENDDDWDDDEDEAAQPPLPSRNVASGAPVQKEEPEQEEIAPSLPSRNSIPAPKQEEAPEQAPEEEIEEEAEEAAPQLPSRSSAAPPPPPRRATPEKKPKENPWATAEYDYDAAEDNELTFVENDKIINIEFVDDDWWLGELEKDGSKGLFPSNYVSLGN
Number of interactions of Abp1 carrying the named SH3, sheet FigS2A-B
  Interactions in Abp1: 80

B2: YSC84 (protein, UniProt P32793 1-468, looked up)
Protein YSC84: MGINNPIPRSLKSETKKAAKVLRSFVKPNQVFGADQVIPPYVLKRAKGLAIITVLKAGFLFSGRAGSGVIVARLKDGTWSAPSAIAMAGAGAGGMVGVELTDFVFILNSEEAVRSFSEFGTITLGGNVSVSAGPLGRSAEAAASASTGGVSAVFAYSKSKGLFAGVSVEGSAILERREANRKFYGDNCTSKMILSGRVKVPPAADPLLRILESRAFNFTRHDHDDNASGDDFYDDGQYSDNTSHYYDDIPDSFDSTDESSTRPNTRSSRRRGMSLGSRSRYDDDYDDDGYGRGRGYGDFDSEDEDYDYGRSPNRNSSRNRGPQIDRGTKPRANTRWEDDLYDRDTEYSRPNHSGRDYDNTRGNRRGYGRERGYSLGHGPTHPSNMSNVDDLSHKMSKTGLGNESTATNSATPTAVALYNFAGEQPGDLAFKKGDVITILKKSDSQNDWWTGRTNGKEGIFPANYVRVS
Abp1 bait with swapped SH3, distance to bait with ABP1 SH3, sheet Fig2C
  Protein-protein interaction distance between Abp1 SH3-swapped baits, to ABP1: 13.97
Distance to Abp1 bait with BBC1 SH3, sheet Fig2C
  Protein-protein interaction distance between Abp1 SH3-swapped baits, to BBC1: 14.14
Distance to Abp1 bait with BEM1-1 SH3, sheet Fig2C
  Protein-protein interaction distance between Abp1 SH3-swapped baits, to BEM1-1: 19.6
Distance to Abp1 bait with BEM1-2 SH3, sheet Fig2C
  Protein-protein interaction distance between Abp1 SH3-swapped baits, to BEM1-2: 36.26
Distance to Abp1 bait with BOI1 SH3, sheet Fig2C
  Protein-protein interaction distance between Abp1 SH3-swapped baits, to BOI1: 16.61
Distance to Abp1 bait with BOI2 SH3, sheet Fig2C
  Protein-protein interaction distance between Abp1 SH3-swapped baits, to BOI2: 20.04
Distance to Abp1 bait with BUD14 SH3, sheet Fig2C
  Protein-protein interaction distance between Abp1 SH3-swapped baits, to BUD14: 22.52
Distance to Abp1 bait with BZZ1-1 SH3, sheet Fig2C
  Protein-protein interaction distance between Abp1 SH3-swapped baits, to BZZ1-1: 11.3
Distance to Abp1 bait with BZZ1-2 SH3, sheet Fig2C
  Protein-protein interaction distance between Abp1 SH3-swapped baits, to BZZ1-2: 16.58
Distance to Abp1 bait with CDC25 SH3, sheet Fig2C
  Protein-protein interaction distance between Abp1 SH3-swapped baits, to CDC25: 30.76
Distance to Abp1 bait with CTTN SH3, sheet Fig2C
  Protein-protein interaction distance between Abp1 SH3-swapped baits, to CTTN: 17.19
Distance to Abp1 bait with CYK3 SH3, sheet Fig2C
  Protein-protein interaction distance between Abp1 SH3-swapped baits, to CYK3: 31.42
Distance to Abp1 bait with DBNL SH3, sheet Fig2C
  Protein-protein interaction distance between Abp1 SH3-swapped baits, to DBNL: 11.44
Distance to Abp1 bait with FUS1 SH3, sheet Fig2C
  Protein-protein interaction distance between Abp1 SH3-swapped baits, to FUS1: 23.88
Distance to Abp1 bait with HCLS1 SH3, sheet Fig2C
  Protein-protein interaction distance between Abp1 SH3-swapped baits, to HCLS1: 11.3
Distance to Abp1 bait with HOF1 SH3, sheet Fig2C
  Protein-protein interaction distance between Abp1 SH3-swapped baits, to HOF1: 34.92
Distance to Abp1 bait with HSE1 SH3, sheet Fig2C
  Protein-protein interaction distance between Abp1 SH3-swapped baits, to HSE1: 12.83
Distance to Abp1 bait with LSB1 SH3, sheet Fig2C
  Protein-protein interaction distance between Abp1 SH3-swapped baits, to LSB1: 3.911
Distance to Abp1 bait with LSB3 SH3, sheet Fig2C
  Protein-protein interaction distance between Abp1 SH3-swapped baits, to LSB3: 3.425
Distance to Abp1 bait with MYO3 SH3, sheet Fig2C
  Protein-protein interaction distance between Abp1 SH3-swapped baits, to MYO3: 9.995
Distance to Abp1 bait with MYO5 SH3, sheet Fig2C
  Protein-protein interaction distance between Abp1 SH3-swapped baits, to MYO5: 8.128
Distance to Abp1 bait with NBP2 SH3, sheet Fig2C
  Protein-protein interaction distance between Abp1 SH3-swapped baits, to NBP2: 21.76
Distance to Abp1 bait with PEX13 SH3, sheet Fig2C
  Protein-protein interaction distance between Abp1 SH3-swapped baits, to PEX13: 7.848
Distance to Abp1 bait with PIN3 SH3, sheet Fig2C
  Protein-protein interaction distance between Abp1 SH3-swapped baits, to PIN3: 5.862
Distance to Abp1 bait with RVS167 SH3, sheet Fig2C
  Protein-protein interaction distance between Abp1 SH3-swapped baits, to RVS167: 8.283
Distance to Abp1 bait with SDC25 SH3, sheet Fig2C
  Protein-protein interaction distance between Abp1 SH3-swapped baits, to SDC25: 36.86
Distance to Abp1 bait with SHO1 SH3, sheet Fig2C
  Protein-protein interaction distance between Abp1 SH3-swapped baits, to SHO1: 12.33
Distance to Abp1 bait with SLA1-1 SH3, sheet Fig2C
  Protein-protein interaction distance between Abp1 SH3-swapped baits, to SLA1-1: 33.18
Distance to Abp1 bait with SLA1-2 SH3, sheet Fig2C
  Protein-protein interaction distance between Abp1 SH3-swapped baits, to SLA1-2: 24.17
Distance to Abp1 bait with SLA1-3 SH3, sheet Fig2C
  Protein-protein interaction distance between Abp1 SH3-swapped baits, to SLA1-3: 6.014
Distance to Abp1 bait with YSC84 SH3, sheet Fig2C
  Protein-protein interaction distance between Abp1 SH3-swapped baits, to YSC84: 0.00

Reference: PMC7954794, “Protein context shapes the specificity of SH3 domain-mediated interactions in vivo” (Nature Communications, 2021)
